Test results published in paper PMC7688135, “Two cis-regulatory SNPs upstream of ABCG2 synergistically cause the blue eggshell phenotype in the duck”.

T1: CTCF (Homo sapiens, UniProt P49711 1-727)
T1 sequence: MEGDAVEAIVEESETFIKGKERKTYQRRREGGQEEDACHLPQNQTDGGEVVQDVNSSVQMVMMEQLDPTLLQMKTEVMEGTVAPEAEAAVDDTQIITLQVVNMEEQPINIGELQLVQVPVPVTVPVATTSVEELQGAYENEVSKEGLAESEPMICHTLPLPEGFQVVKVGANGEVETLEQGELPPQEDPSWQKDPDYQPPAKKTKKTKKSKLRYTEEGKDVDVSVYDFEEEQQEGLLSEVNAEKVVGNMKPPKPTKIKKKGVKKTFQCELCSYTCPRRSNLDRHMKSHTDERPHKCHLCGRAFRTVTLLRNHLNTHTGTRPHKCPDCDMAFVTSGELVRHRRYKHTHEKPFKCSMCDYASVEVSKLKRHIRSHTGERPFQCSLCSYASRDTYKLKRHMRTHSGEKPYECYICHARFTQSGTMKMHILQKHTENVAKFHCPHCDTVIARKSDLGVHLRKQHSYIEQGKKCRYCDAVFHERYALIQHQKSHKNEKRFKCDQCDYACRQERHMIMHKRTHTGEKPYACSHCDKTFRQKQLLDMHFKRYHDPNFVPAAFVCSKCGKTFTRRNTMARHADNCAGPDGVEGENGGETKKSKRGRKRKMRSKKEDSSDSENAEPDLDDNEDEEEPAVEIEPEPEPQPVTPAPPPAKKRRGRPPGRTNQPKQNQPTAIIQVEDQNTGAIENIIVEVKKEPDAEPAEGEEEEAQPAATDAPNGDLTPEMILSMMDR

B1: Blue-M5 (A allele) (dsDNA)
DNA 1: ACTTCTGCCACTAGAGGCAGGAGGG
DNA 2: CCCTCCTGCCTCTAGTGGCAGAAGT
B2: White-M5 (G allele) (dsDNA)
DNA 1: ACTTCTGCCACTGGAGGCAGGAGGG
DNA 2: CCCTCCTGCCTCCAGTGGCAGAAGT

Key:
[1] = target: T1, CTCF; assay: EMSA supershift; anti-CTCF antibody; supershift evident; Buffer, salt, pH and temperature not given; 40 pmol biotin probe, 200-fold cold competitor, 5% non-denaturing PAGE, LightShift Chemiluminescent EMSA kit; conditions: protein: recombinant; label: 5'-biotin on strand 1; blunt
[2] = target: T1, CTCF; assay: EMSA supershift; anti-CTCF antibody; Buffer, salt, pH and temperature not given; 40 pmol biotin probe, 200-fold cold competitor, 5% non-denaturing PAGE, LightShift Chemiluminescent EMSA kit; conditions: protein: recombinant; label: 5'-biotin on strand 1; blunt

Binder	binding result [1]	binding result [2]
B1	binds	–
B2	–	no binding
